Measurements from the MegaScale stability set (Tsuboyama et al. 2023).

B1: 2K2A (parent)
chain: ELREAFRLYDKEGNGYISTDVMREILAELDETLSSEDLDAMIDEIDADGSGTVDFEEFMGVMT
B2: 6YSE (parent)
chain: HERALMVNRLQKLTRMLRVHPDPKWKQEQQELIKRLK

Variants of: B1
Assay: folding stability dG (cDNA display proteolysis); higher = more stable
Details: PBS, room temperature

Folding stability dG [kcal/mol], by site and new letter:
G51: A 0.849 | N 1.18 | F 0.853 | Y 0.517 | L 0.92 | P -0.745 | D 0.686 | W 0.564 | I 0.064 | R 1.35 | S 0.834 | V 0.029 | T 0.424 | K 1.27 | Q 1.01 | C 0.991 | M 1.15 | E 0.622 | H 1.39
T63: Y 1.58 | G 1.85 | M 2.17 | I 2.07 | K 1.97 | F 1.56 | E 1.66 | S 1.88 | N 1.82 | L 2.25 | Q 1.83 | H 1.76 | R 1.94 | P 1 | W 1.33 | V 1.82 | C 2.18 | A 1.97 | D 1.26
M62: C 1.81 | G 0.514 | Y 1.58 | S 0.277 | H 0.762 | A 0.857 | L 1.5 | W 1.83 | D 0.171 | R 0.711 | P 0.128 | T 0.559 | F 2.04 | I 1.48 | K 0.674 | V 1.34 | N 0.258 | E -0.063 | Q 0.539
E56: R 1.78 | N 1.86 | G 1.56 | L 1.88 | I 1.87 | C 1.92 | F 2.04 | T 1.69 | Y 2.02 | Q 1.9 | H 1.88 | V 1.75 | P 1.21 | W 1.99 | S 1.75 | D 1.84 | M 1.64 | K 1.77 | A 1.78
D54: K 1.57 | C 1.51 | W 1.72 | N 2.26 | M 1.76 | G 2.07 | H 1.68 | V 1.38 | Y 2 | E 1.33 | T 2.36 | A 1.78 | I 1.27 | P 1.14 | L 1.43 | F 1.79 | Q 1.63 | R 1.73 | S 2.43
G60: T 2.37 | D 1.75 | K 2.69 | M 2.5 | C 2.25 | F 2.49 | V 2.13 | S 2.29 | E 1.85 | W 2.79 | Y 2.57 | H 2.48 | N 2.15 | L 2.46 | I 2.39 | Q 2.32 | A 2.53 | P 0.712 | R 2.82
F55: V 1.32 | W 1.75 | P -0.144 | E 1.33 | A 0.686 | M 1.31 | D -0.867 | G -0.263 | Q 0.578 | S 0.161 | T 0.148 | N -0.55 | L 1.66 | C 0.683 | Y 1.88 | K 0.132 | I 1.47 | H 0.24 | R 0.375
V53: I 2.37 | P -0.828 | F 1.07 | T -0.067 | Y 0.679 | S 0.029 | Q -0.515 | A 0.162 | M 0.875 | W 0.916 | R -0.087 | G -0.308 | K -0.419 | H 0.004 | C 0.799 | L 1.58
S50: Y 1.05 | W 0.737 | V 1.18
T52: G 1.02 | K 1.74 | Y 1.52 | F 1.53 | Q 1.68 | P -0.373 | M 1.74 | A 1.11 | N 1.49 | R 1.87 | W 1.31 | S 1.45 | C 1.15 | H 1.69 | D 0.729 | I 1.64 | E 1.28 | L 1.65 | V 1.55
E57: Y 1.58 | W 1.55 | K 2.58 | M 2.37 | D 1.72 | S 2.39 | C 2.01 | V 2.26 | N 2 | F 1.47 | P 0.106 | H 2.18 | I 1.97 | A 2.47 | T 2.46 | G 2.33 | Q 2.48 | R 2.48 | L 1.9
V61: C 1.86 | P 0.265 | I 2.12 | G 1.49 | K 1.32 | N 0.566 | W 3.03 | D -0.74 | S 1.26 | M 1.83 | H 1.67 | F 2.75 | E 0.207 | Y 2.69 | L 2.06 | A 2.2 | R 1.16 | T 1.21 | Q 0.902
M59: G 0.537 | K 1.81 | L 1.91 | H 1.2 | C 1.7 | I 2.03 | D 0.144 | N 0.889 | P -0.961 | V 2.18 | S 1.77 | T 1.49 | F 2.03 | E 1.41 | A 2.04 | W 1.4 | R 1.96 | Y 2.02 | Q 1.65
F58: M 0.426 | V 0.336 | Y 1.6 | T -0.411 | I 0.406 | A 0.332 | W 1.69 | N -0.854 | E -0.986 | L 0.779 | C 0.529 | Q -0.946

Variants of: B2
Assay: as above
Details: PBS, room temperature

Folding stability dG [kcal/mol], by site and new letter:
M6: R 0.36 | Q 0.35 | T 0.188
P23: D 0.676
W25: G 0.387
I33: A 0.217
P21: Y 2.16
H1: E 1.26 | W 1.75
Q29: Y 1.7 | W 1.47 | A 1.48
E2: R 0.9
N8: H 1.47 | M 1.67 | L 1.75 | S 1.67 | D 1.45
R3: M 0.994 | Y 1.69 | K 1.03 | A 0.434 | V 1.34 | I 1.63 | L 1.61
A4: Q 1.63 | M 1.66 | H 1.35
L5: Y 1.23 | Q 1.61
E31: Y 1.1 | L 1.08 | V 0.669
L17: A -0.037
K24: H 0.889 | A 1.24 | I 1.32 | S 0.97 | W 0.63
Q11: W 1.5
R35: V 1.14 | D -0.514 | T 0.734
M16: H -0.229 | A 0.312
Q27: E 1.42 | F 1.14
K26: R 1.32 | E 1.14 | V 1.16 | I 1.4
K12: N 1.01 | L 1.53
Q30: F 0.851 | H 0.978 | N 0.979
L10: F -0.248 | Y 0.292
L36: W -0.411
V19: I 1.51 | M 1.37
E28: S -0.485 | Y 0.612 | D -0.285 | N -0.895 | M 0.854 | L 0.849 | I 1.05
R9: M 0.818 | S -0.602 | W 0.91
H20: K 1.57 | D 1.3
K37: T 1.25 | G 1.27 | H 1.19 | N 1.24 | Q 1.8
R15: M 1.33 | Y 0.918 | G 0.365 | A 1.32
D22: Y 1.14 | W 0.947 | V 0.67 | K 1.23 | H 1.3 | M 0.675
T14: L 1.13 | W 0.988 | Y 1.15
R18: Y 0.492
K34: N 1 | Y 1.02
